The results in this text go back to IntAct's records for PubMed 17923090.

The labels stand for the following.
B1: Interferon alpha/beta receptor 2 (Homo sapiens), P48551 (parent)
chain: MLLSQNAFIFRSLNLVLMVYISLVFGISYDSPDYTDESCTFKISLRNFRSILSWELKNHSIVPTHYTLLYTIMSKPEDLKVVKNCANTTRSFCDLTDEWRSTHEAYVTVLEGFSGNTTLFSCSHNFWLAIDMSFEPPEFEIVGFTNHINVMVKFPSIVEEELQFDLSLVIEEQSEGIVKKHKPEIKGNMSGNFTYIIDKLIPNTNYCVSVYLEHSDEQAVIKSPLKCTLLPPGQESESAESAKIGGIITVFLIALVLTSTIVTLKWIGYICLRNSLPKVLNFHNFLAWPFPNLPPLEAMDMVEVIYINRKKKVWDYNYDDESDSDTEAAPRTSGGGYTMHGLTVRPLGQASATSTESQLIDPESEEEPDLPEVDVELPTMPKDSPQQLELLSGPCERRKSPLQDPFPEEDYSSTEGSGGRITFNVDLNSVFLRVLDDEDSDDLEAPLMLSSHLEEMVDPEDPDNVQSNHLLASGEGTQPTFPSPSSEGLWSEDAPSDQSDTSESDVDLGDGYIMR
B2: Interferon regulatory factor 9 (Homo sapiens), Q00978 (parent)
chain: MASGRARCTRKLRNWVVEQVESGQFPGVCWDDTAKTMFRIPWKHAGKQDFREDQDAAFFKAWAIFKGKYKEGDTGGPAVWKTRLRCALNKSSEFKEVPERGRMDVAEPYKVYQLLPPGIVSGQPGTQKVPSKRQHSSVSSERKEEEDAMQNCTLSPSVLQDSLNNEEEGASGGAVHSDIGSSSSSSSPEPQEVTDTTEAPFQGDQRSLEFLLPPEPDYSLLLTFIYNGRVVGEAQVQSLDCRLVAEPSGSESSMEQVLFPKPGPLEPTQRLLSQLERGILVASNPRGLFVQRLCPIPISWNAPQAPPGPGPHLLPSNECVELFRTAYFCRDLVRYFQGLGPPPKFQVTLNFWEESHGSSHTPQNLITVKMEQAFARYLLEQTPEQQAAILSLV
partner: B1 chain
B3: Interferon alpha/beta receptor 2 (Homo sapiens), P48551 (parent)
chain: B1 chain
partner: B2 chain

The first assay covers variants of B1. To be noted: with cbp_human CREBBP.
Turning to S364A, the “effect of a mutation on the interaction” value is given as “decreasing interaction”. In the case of S384A, the “effect of a mutation on the interaction” value is “decreasing interaction”.

Variants of B2 are the subject of a further assay. To be noted: with inar2_human IFNAR2, P48551.
Turning to R292Q, the “effect of a mutation on the interaction” value is “decreasing interaction”.

The variants in the next assay derive from B3. To be noted: with irf9_human IRF9, Q00978.
Consider K399A, for which the “effect of a mutation on the interaction” value was “decreasing interaction”. With S400A, the “effect of a mutation on the interaction” value is on record as “increasing interaction”. The same measure, in the same setting: the same measure for K399A;S400A: “decreasing interaction”.
